# T1: Anx A5 on PS containing liposomes (Homo sapiens, UniProt P08758)
# T1 sequence (P08758 1-320): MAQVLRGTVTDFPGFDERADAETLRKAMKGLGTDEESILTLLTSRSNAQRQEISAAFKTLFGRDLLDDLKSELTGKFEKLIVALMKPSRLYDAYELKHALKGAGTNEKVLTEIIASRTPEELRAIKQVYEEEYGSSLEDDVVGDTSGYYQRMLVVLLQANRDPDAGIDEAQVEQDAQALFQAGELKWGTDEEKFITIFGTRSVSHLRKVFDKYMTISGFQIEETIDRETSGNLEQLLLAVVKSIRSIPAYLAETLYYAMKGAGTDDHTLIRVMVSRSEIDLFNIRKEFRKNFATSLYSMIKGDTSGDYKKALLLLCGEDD
# B1: recombinant La: recombinant La, species not specified at the place; 40 nM FL La in HA0-RBC assay (protein, UniProt P05455 1-408, looked up)
# Lupus La protein: MAENGDNEKMAALEAKICHQIEYYFGDFNLPRDKFLKEQIKLDEGWVPLEIMIKFNRLNRLTTDFNVIVEALSKSKAELMEISEDKTKIRRSPSKPLPEVTDEYKNDVKNRSVYIKGFPTDATLDDIKEWLEDKGQVLNIQMRRTLHKAFKGSIFVVFDSIESAKKFVETPGQKYKETDLLILFKDDYFAKKNEERKQNKVEAKLRAKQEQEAKQKLEEDAEMKSLEEKIGCLLKFSGDLDDQTCREDLHILFSNHGEIKWIDFVRGAKEGIILFKEKAKEALGKAKDANNGNLQLRNKEVTWEVLEGEVEKEALKKIIEDQQESLNKWKSKGRRFKGKGKGNKAAQPGSGKGKVQFQGKKTKFASDDEHDEHDENGATGPVKRAREETDKEEPASKQQKTENGAGDQ
# Assays:
# [1] = tested on: HA0-expressing 3T3 fibroblasts and red blood cells; assay: HA0-RBC fusion assay; type: cell-based, mouse, human
# [2] = tested on: human monocyte-derived osteoclasts; assay: Osteoclast fusion assay (number of fusion events, fluorescence microscopy); type: cell-based; conditions: recombinant protein ~40 nM added end of day 2 post-RANKL, overnight
# Protocol: Osteoclasts: Elutriated monocytes from healthy donors were obtained. Cells were plated at 2.9×10^5 per cm^2 in 35 mm dishes with polymer coverslip bottoms (Ibidi #81156) for imaging or 35 mm or 10 cm dishes for biochemical experiments in complete media [α-MEM supplemented with 10% Fetal Bovine Serum (FBS) and penicillin-streptomycin-L-glutamine (Gibco Invitrogene #12571063; #26140079 and #10378016, respectively)]. Monocytes were differentiated to M2 macrophages in the presence of 100 ng/ml M-CSF for 6 days and then differentiated with 100 ng/ml M-CSF and 100 ng/ml RANKL for 3 days unless indicated otherwise. RAW 264.7 cells (ATCC, Manassas, VA, #TIB-71) were maintained in DMEM supplemented with 10% FBS to a maximum of 8 passages. RAW 264.7 cells were differentiated to osteoclasts in the presence of 100 ng/ml murine RANKL for 5 days. To separate unfused mononucleated and fused, multinucleated RAW 264.7 cells into separate fractions, advantage was taken of the much stronger adherence of multinucleated cells to culture dish plastic. After washing in PBS, mixed RAW cultures (following RANKL differentiation) were left in Ca^2+ and Mg^2+ free PBS for 10 minutes at room temperature. Culture dishes were then tapped on the lab bench and a large portion of unfused, mononucleated RAW cells were released, and these released cells were collected via centrifugation. This process was repeated 2-4 times until dishes were left with a population of primarily fused, multinucleated syncytia. Mononucleated and multinucleated cell fractions were then processed for biochemical or imaging experiments as described below.
# Constructs & Recombinant proteins & Transfection: Recombinant La 1-408, 1-375, 1-375 Q20A_Y24A_D33I, 1-187 and 188-375 were amplified with primers designed with overlapping sequences and inserted between NdeI/HindIII in the V78 pET28A E. coli expression vector, adding to each a N-terminal 6×his affinity tag. La 1-408 was expressed as a recombinant protein in E. coli and purified using IMAC columns by SD Biosciences (San Diego, CA). The remaining constructs were transformed into BL2 (DE3) chemically competent E. coli (Thermo Fisher Scientific) and protein expression was induced with IPTG. Cells were lysed with Bugbuster (Sigma), and 6×his-La proteins were affinity purified using HisPur Cobalt Spin columns (Thermo Fisher Scientific), each according to the manufacturer's instructions. Endotoxin contaminates were depleted from affinity purified 6×his-La proteins using Pierce high-capacity endotoxin removal columns (Thermo Fisher Scientific), according to the manufacturer's instructions. Proteins were then sterile filtered, aliquoted and kept at −80 C.
# Plasmids were introduced into primary osteoclasts at day 2 of RANKL stimulation via jetPRIME (Polyplus Transfection). FLAG-La 1-408, FLAG-La 1-375 and FLAG-La 1-375 Q20A_Y24A_D33I plasmids were a gift of the Maraia Lab (NICHD). Briefly, SSB (UniProt P05455) was inserted between HindIII and BamHI the pFLAG-CMV2 vector (Sigma). “Uncleavable” La was produced by taking the FLAG-La 1-408 plasmid and making two point mutations at amino acids D371A and D374A, abrogating the caspase cleavage sites at the C-terminal region of the protein (Emory Integrated Genomics Core). siRNA were introduced into primary osteoclasts after 1 day of RANKL stimulation via Lipofectamine RNAiMAX (Thermo Fisher Scientific). Non-targeted (Cat #4390843) and SSB-targeted (Cat #4392420_ID:s13469) siRNA were introduced at a concentration of 5 ng/ml (Silencer Select, Ambion).
# Fusion Assays: Osteoclast fusion in the culture systems was evaluated by fluorescence microscopy (Verma et al., J Biol Chem 293, 254-270, doi:10.1074/jbc.M117.809681 (2018)). Briefly, cells were fixed with 4% paraformaldehyde at timepoints of interest, permeabilized with 0.1% TRITON™ X-100 and blocked with 5% FBS. Cells were then stained with phallodin-ALEXAFLURO®488 and Hoechst to label cells' actin cytoskeleton and nuclei, respectively. […]
# human osteoclasts = assay: Synchronized osteoclast membrane fusion after LPC removal; type: cell-based; conditions: recombinant La applied to LPC-synchronized osteoclasts
# Protocol: It was then assessed whether La at the surface of human osteoclasts functions at the cell fusion stage of osteoclastogensis. All cell-cell fusion events in development and tissue maintenance proceed through slow (days), asynchronous differentiation processes that prepare fusion competent cells (Brukman et al., J Cell Biol 218, 1436-1451, doi:10.1083/jcb.201901017 (2019)). Then, PM fusion occurs by the rapid (minutes) progression from the initial formation of hemifusion connections to fusion pores that unite the volumes of two cells (FIG. 3D, top). These steps were decoupled in the formation of multinucleated syncytia using the hemifusion inhibitor lysophosphatidylcholine (LPC) (Verma et al., J Biol Chem 293, 254-270, doi:10.1074/jbc.M117.809681 (2018)). LPC's inverted cone shape is not conducive to the concave geometry of the hemifusion stalk, so ready-to-fuse cells are trapped upstream of hemifusion. After removing LPC, cells undergo synchronized fusion relatively rapidly (within 90 mins), affording the ability to assess the function of proteins specifically in the membrane fusion stage of osteoclast formation decoupled from upstream differentiation processes (FIG. 3D, bottom). Ready-to-fuse, RANKL committed cells were accumulated in the presence of LPC, and then this hemifusion blockade was lifted by washing out LPC. […]
# [3] = target: T1, Anx A5 on PS containing liposomes; assay: Liposome binding assay
# Text: Anx A5 binds to PS containing membranes in a Ca^2+-dependent manner. Recombinant La was introduced alone or along with recombinant Anx A5 to PS containing liposomes and pelleted liposomes by centrifugation to evaluate whether La was enriched with liposomes or in supernatant (FIG. 12C).
# Liposome binding assay: Multilamellar liposomes were formed from pure PC or 9:1 (w/w) mixture of PC and PS. Both lipid compositions were supplemented with 0.5 mol % of lissamine rhodamine phosphatidylethanolamine. To prepare liposomes, lipid stock in benzene/methanol (95:5) was frozen in liquid nitrogen and freeze-dried overnight using SPEEDVAC™ (Savant). Dried lipid was resuspended in aqueous buffer (100 mM NaCl, 10 mM Hepes, pH 7.0) at 1 mM total lipid concentration and vortexed. Proteins and CaCl2 were added to the liposomes and the mixtures were incubated on ice for 30 minutes. To pellet, liposomes were centrifugated at 15,000 g for 20 minutes to pellet, based on rhodamine fluorescence ˜95% of liposomes. Centrifugated samples were then fractionated into a top, liposome-depleted fraction and a bottom fraction containing liposomes and liposome-bound proteins. Fractions were then solubilized via addition of Laemmli buffer (Bio Rad) and separated via SDS-PAGE, as described above. Recombinant La and recombinant Anx A5 were detected via their n-terminal 6×His tag via α-6×His antibody (Abcam) and signals for soluble vs liposome bound protein fractions were evaluated via densitometry. Data were presented as a percentage of protein signal bound to liposomes where: […]
molecule,measurement,setting,value
B1,HA0-cell bound RBCs that exchanged lipid (hemifusion) or cytoplasmic (fusion pore) probes,[1],none of 872
same,lower activity than fusion mediated by activated HA,[1],at least 100 fold
same,probability of La mediated fibroblast-RBC fusion,"[1]; upper limit by Wilson's method, 40 nM",≤ 0.0044 per cell contact
same,formation of multinucleated syncytia (osteoclast fusion),[2],promotes osteoclast fusion
same,synchronized osteoclast membrane fusion,human osteoclasts,dramatically promoted
same,pelleting with liposomes,"[3]; PS containing liposomes, La alone",pelleted poorly
same,pelleting with liposomes,"[3]; PS containing liposomes, La with Anx A5, Ca^2+",pelleted with liposomes
same,pelleting with liposomes,[3]; liposomes lacking PS,neither La nor Anx A5 pelleted
